Experimental data published in patent US20230414780A1 (VECT HORUS, published 2023).

Key:
Experiment in all cases: apparent Kd, flow cytometry, CHO cells
[1] = target: T1, human transferrin receptor (hTfR) fused to EGFP, on CHO cells (human, UniProt P02786 1-760)
T1 construct: whole, on cells; also called human TfR; CHO-hTfR-EGFP; not shown: EGFP from pEGFP-C1 vector, fused to the N-terminal (intracellular) end of hTfR
Protocol: (§1) The binding properties of VHHs with affinity for the TfR from different species (i.e., human (h), mouse (m) and rhesus monkey (rh)) were tested using flow cytometry, and apparent affinities (Kd app) were determined. All experiments were performed in 96 well plates using 2×10⁵ cells/well, at 4° C. with shaking. CHO cell lines expressing the hTfR, mTfR or rhTfR fused to EGFP were saturated with PBS/BSA 2% solution during 30 min to avoid nonspecific binding, followed by incubation with purified VHHs at increasing concentrations for 1 hr. After one wash in PBS/BSA 2%, cells were incubated for 1 hr with an anti-6His tag antibody (mouse), washed twice with PBS/BSA 2%, and incubated for 1 hr with an Alexa647-conjugated anti-mouse secondary antibody. After two last washes in PBS/BSA 2%, cells were fixed by incubation for 15 min with PBS/PFA 2%, washed once with PBS and finally resuspended in PBS. Fluorescence levels were assessed using an Attune NxT flow cytometer (Thermo Fisher Scientific). Experimental data were fitted with GraphPad Prism® software using a nonlinear fit to determine the apparent Kd constants. […] Table 5 hereafter summarizes apparent Kd obtained for the tested VHHs.

[2] = target: T2, rhesus monkey transferrin receptor (rhTfR) fused to EGFP, on CHO cells (rhesus monkey)
T2 construct: whole, on cells; also called rhesus monkey TfR
Protocol: as §1

[3] = target: T3, mouse transferrin receptor (mTfR) fused to EGFP, on CHO cells (mouse, UniProt Q62351 1-763)
T3 construct: whole, on cells; also called mouse TfR; CHO-mTfR-EGFP; not shown: EGFP
T3 sequence (Q62351 whole entry, the tested form may be a part): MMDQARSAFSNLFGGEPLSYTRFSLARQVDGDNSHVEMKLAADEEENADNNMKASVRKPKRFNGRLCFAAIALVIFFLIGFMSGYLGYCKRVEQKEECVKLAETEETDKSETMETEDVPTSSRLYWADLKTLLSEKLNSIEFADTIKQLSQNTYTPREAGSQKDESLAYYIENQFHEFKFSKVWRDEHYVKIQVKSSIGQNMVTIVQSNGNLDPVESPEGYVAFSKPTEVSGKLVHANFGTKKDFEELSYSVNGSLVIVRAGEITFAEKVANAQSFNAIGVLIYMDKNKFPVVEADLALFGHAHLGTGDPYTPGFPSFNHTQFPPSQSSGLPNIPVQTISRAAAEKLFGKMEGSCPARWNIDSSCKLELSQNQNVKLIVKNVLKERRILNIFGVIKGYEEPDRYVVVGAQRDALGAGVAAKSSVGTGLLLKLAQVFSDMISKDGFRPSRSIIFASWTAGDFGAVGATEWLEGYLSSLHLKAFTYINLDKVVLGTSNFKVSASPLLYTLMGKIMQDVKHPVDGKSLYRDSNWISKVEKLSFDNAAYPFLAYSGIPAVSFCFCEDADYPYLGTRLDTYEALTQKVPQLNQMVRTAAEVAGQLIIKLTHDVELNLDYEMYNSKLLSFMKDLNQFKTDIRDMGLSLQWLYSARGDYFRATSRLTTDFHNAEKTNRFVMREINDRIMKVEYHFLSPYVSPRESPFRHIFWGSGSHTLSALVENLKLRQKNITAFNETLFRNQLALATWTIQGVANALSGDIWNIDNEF
Protocol: as §1

T1 sequence (P02786 whole entry, the tested form may be a part): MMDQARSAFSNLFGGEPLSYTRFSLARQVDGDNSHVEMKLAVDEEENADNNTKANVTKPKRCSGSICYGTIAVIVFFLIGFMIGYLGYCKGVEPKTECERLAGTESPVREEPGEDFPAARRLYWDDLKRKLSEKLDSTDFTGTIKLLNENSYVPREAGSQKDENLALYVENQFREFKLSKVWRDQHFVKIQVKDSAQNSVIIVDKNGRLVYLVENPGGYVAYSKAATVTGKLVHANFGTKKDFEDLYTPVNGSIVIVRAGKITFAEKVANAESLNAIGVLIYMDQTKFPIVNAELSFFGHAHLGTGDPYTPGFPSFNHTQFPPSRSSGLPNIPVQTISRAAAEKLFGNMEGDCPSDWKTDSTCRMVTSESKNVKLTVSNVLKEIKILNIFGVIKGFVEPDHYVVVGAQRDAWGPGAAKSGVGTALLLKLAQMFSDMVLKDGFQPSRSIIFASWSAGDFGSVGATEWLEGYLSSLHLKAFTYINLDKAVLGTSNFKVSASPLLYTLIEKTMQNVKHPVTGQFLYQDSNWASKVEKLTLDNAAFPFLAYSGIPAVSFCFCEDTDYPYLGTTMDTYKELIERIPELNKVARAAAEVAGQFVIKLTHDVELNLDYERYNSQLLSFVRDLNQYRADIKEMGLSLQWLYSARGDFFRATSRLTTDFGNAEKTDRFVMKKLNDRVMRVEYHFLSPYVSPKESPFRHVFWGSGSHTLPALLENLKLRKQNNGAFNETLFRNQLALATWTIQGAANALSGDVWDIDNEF

Binder	Kd [1]	Kd [2]	Kd [3]
C5^V21 (VHH) VHH: EVQLVESGGGVVQPGGSLKLSCVASGTDFSINFIRWYRQAPGKQREFVAGWTATGNTNYADSMKGRFTISRDNTKNAVYLQIDSLKPEDTAVYYCYMLDKWGQGTQVTVSS	2.4 nM	8.2 nM	120 nM
C5^V25 (VHH) VHH: EVQLVESGGGVVQPGGSLKLSCVASGTDFSINFIRWYRQAPGKQREFVAGFTATGNTNYADSMKGRFTISRDNTKNAVYLQIDSLKPEDTAVYYCYLLDKWGQGTQVTVSS	4.5 nM	429 nM	136 nM
C5^h14 (VHH) VHH: EVQLVESGGGVVQPGGSLRLSCAASGTDFSINFIRWVRQAPGKGLEWVAGFTATGNTNYADSVKGRFTISRDNTKNALYLQMNSLRPEDTAVYYCYMLDKWGQGTQVTVSS	1100 nM	–	164 nM
C5^h15 (VHH) VHH: EVQLVESGGGVVQPGGSLRLSCVASGTDFSINFIRWVRQAPGKGLEWVAGFTATGNTNYADSVKGRFTISRDNTKNTLYLQMDSLRPEDTAVYYCYMLDKWGQGTQVTVSS	1090 nM	–	452 nM
C5^h10 (VHH) VHH: EVQLVESGGGVVQPGGSLKLSCAASGTDFSINFIRWVRQAPGKGLEWVAGFTATGNTNYADSVKGRFTISRDNTKNTLYLQINSLRPEDTAVYYCYMLDKWGQGTQVTVSS	1070 nM	–	845 nM
VHH A10 (C5^V10) (VHH) VHH: EVQLVESGGGVVQPGGSLKLSCVASGTDFSLNFIRWYRQAPGKQREFVAGFTATGNTNYADSMKGRFTISRDNTKNAVYLQIDSLKPEDTAVYYCYMLDKWGQGTQVTVSS	3.4 nM	5.1 nM	159 nM
C5^h24 (VHH) VHH: EVQLVESGGGVVQPGGSLRLSCAASGTDFSINFIRWYRQAPGKGLEFVAGFTATGNTNYADSMKGRFTISRDNAKNTLYLQMNSLRPEDTAVYYCYMLDKWGQGTQVTVSS	4.1 nM	641 nM	624 nM
C5^V23 (VHH) VHH: EVQLVESGGGVVQPGGSLKLSCVASGTDFSINFIRWYRQAPGKQREFVAGFTATGNTNYADSMKGRFTISRDNTKNAVYLQIDSLKPEDTAVYYCHMLDKWGQGTQVTVSS	4.5 nM	353 nM	254 nM
C5^h26 (VHH) VHH: EVQLVESGGGVVQPGGSLRLSCAASGTDFSINFIRWYRQAPGKGLEWVAGFTATGNTNYADSVKGRFTISRDNAKNTLYLQIDSLRPEDTAVYYCYMLDKWGQGTQVTVSS	4 nM	656 nM	675 nM
C5^V24 (VHH) VHH: EVQLVESGGGVVQPGGSLKLSCVASGTDFSINFIRWYRQAPGKQREFVAGFTATGNTNYADSMKGRFTISRDNTKNAVYLQIDSLKPEDTAVYYCWMLDKWGQGTQVTVSS	4.3 nM	564 nM	218 nM
C5^V26 (VHH) VHH: EVQLVESGGGVVQPGGSLKLSCVASGTDFSINFIRWYRQAPGKQREFVAGFTATGNTNYADSMKGRFTISRDNTKNAVYLQIDSLKPEDTAVYYCYVLDKWGQGTQVTVSS	7.9 nM	335 nM	211 nM
C5^h16 (VHH) VHH: EVQLVESGGGLVQPGGSLRLSCAASGTDFSINFIRWYRQAPGKGLEFVAGFTATGNTNYADSVKGRFTISRDNSKNTLYLQMNSLRAEDTAVYYCYMLDKWGQGTLVTVSS	8.1 nM	760 nM	582 nM
B8^V4 (VHH) VHH: EVQLVESGGGVVQPGGSLRLSCAASGEIFSINFMRWYRQAPIKQREWVAGFTRDGSTNYPDSAKGRFTISRDNAKNTVYLQIDSLKPEDTAVYYCYMLDTWGQGTQVTVSS	0.4 nM	0.3 nM	0.6 nM
B8^V5 (VHH) VHH: EVQLVESGGGVVQPGGSLRLSCAASGEIFSINFMRWYRQAPGKIREWVAGFTRDGSTNYPDSAKGRFTISRDNAKNTVYLQIDSLKPEDTAVYYCYMLDTWGQGTQVTVSS	2.3 nM	2.1 nM	3.8 nM

Second part, the binder after the results:

Kd [1]	Kd [2]	Kd [3]	Binder
2.5 nM	6.1 nM	125 nM	C5^V20 (VHH) VHH: EVQLVESGGGVVQPGGSLKLSCVASGHDFSINFIRWYRQAPGKQREFVAGFTATGNTNYADSMKGRFTISRDNTKNAVYLQIDSLKPEDTAVYYCYMLDKWGQGTQVTVSS
8.3 nM	730 nM	554 nM	C5^h13 (VHH) VHH: EVQLVESGGGVVQPGGSLRLSCAASGTDFSINFIRWYRQAPGKGLEFVAGFTATGNTNYADSVKGRFTISRDNTKNTLYLQMNSLRPEDTAVYYCYMLDKWGQGTQVTVSS
630 nM	–	898 nM	C5^h17 (VHH) VHH: EVQLVESGGGVVQPGGSLKLSCVASGTDFSINFIRWVRQAPGKGLEFVAGFTATGNTNYADSMKGRFTISRDNTKNALYLQIDSLRPEDTAVYYCYMLDKWGQGTQVTVSS
8.8 nM	1010 nM	600 nM	C5^h21 (VHH) VHH: EVQLVESGGGVVQPGGSLRLSCAASGTDFSINFIRWYRQAPGKGLEFVAGFTATGNTNYADSVKGRFTISRDNAKNTLYLQMNSLKPEDTAVYYCYMLDKWGQGTQVTVSS
1130 nM	1240 nM	1370 nM	C5^h11 (VHH) VHH: EVQLVESGGGVVQPGGSLRLSCAASGTDFSINFIRWVRQAPGKGLEWVAGFTATGNTNYADSMKGRFTISRDNTKNTLYLQMNSLRPEDTAVYYCYMLDKWGQGTQVTVSS
267 nM	–	225 nM	VHH A21 (C5^h2) (VHH) VHH: EVQLVESGGGVVQPGGSLRLSCAASGTDFSINFIRWVRQAPGKQREFVAGFTATGNTNYADSVKGRFTISRDNAKNTLYLQMNSLRPEDTAVYYCYMLDKWGQGTQVTVSS
3.3 nM	371 nM	160 nM	C5^V28 (VHH) VHH: EVQLVESGGGVVQPGGSLKLSCVASGADFSINFIRWYRQAPGKQREFVAGFSATGNTNYADSMKGRFTISRDNTKNAVYLQIDSLKPEDTAVYYCYMLDKWGQGTQVTVSS
3.3 nM	3.9 nM	158 nM	VHH A14 (C5^V14) (VHH) VHH: EVQLVESGGGVVQPGGSLKLSCVASGTDFSINFIRWYRQAPGKQREFVAGFTATGNSNYADSMKGRFTISRDNTKNAVYLQIDSLKPEDTAVYYCYMLDKWGQGTQVTVSS
2.7 nM	11 nM	131 nM	C5^V22 (VHH) VHH: EVQLVESGGGVVQPGGSLKLSCVASGTDFSINFIRWYRQAPGKQREFVAGYTATGNTNYADSMKGRFTISRDNTKNAVYLQIDSLKPEDTAVYYCYMLDKWGQGTQVTVSS
4.3 nM	361 nM	331 nM	C5^h12 (VHH) VHH: EVQLVESGGGVVQPGGSLRLSCAASGTDFSINFIRWYRQAPGKGLEFVAGFTATGNTNYADSVKGRFTISRDNAKNTLYLQIDSLRPEDTAVYYCYMLDKWGQGTQVTVSS
987 nM	–	656 nM	C5^h8 (VHH) VHH: EVQLVESGGGVVQPGGSLRLSCAASGTDFSINFIRWVRQAPGKGLEWVAGFTATGNTNYADSVKGRFTISRDNTKNTLYLQIDSLRPEDTAVYYCYMLDKWGQGTQVTVSS
594 nM	2000 nM	1540 nM	C5^h23 (VHH) VHH: EVQLVESGGGVVQPGGSLRLSCAASGTDFSINFIRWVRQAPGKQREFVAGFTATGNTNYADSVKGRFTISRDNAKNTLYLQMNSLRPEDTAVYYCYMLDKWGQGTQVTVSS
193 nM	–	–	VHH A24 (C5^h5) (VHH) VHH: EVQLVESGGGVVQPGGSLRLSCAASGTDFSINFIRWVRQAPGKGLEWVAGFTATGNTNYADSVKGRFTISRDNAKNTLYLQMNSLRPEDTAVYYCYMLDKWGQGTQVTVSS
0.1 nM	0.1 nM	0.2 nM	B8^V2 (VHH) VHH: EVQLVESGGGVVQPGGSLRLSCAASGEIFSINFMRWYGQAPGKQREWVAGFTRDGSTNYPDSAKGRFTISRDNAKNTVYLQIDSLKPEDTAVYYCYMLDTWGQGTQVTVSS
